# Reference: patent publication US20220175781A1, “CD40L COMPOSITIONS AND METHODS FOR TUNABLE REGULATION” (Obsidian Therapeutics, Inc., priority 2019, published 2022)
# B1: OT-001962: hDHFR regulated CD40L construct (protein)
# chain: MVGSLNCIVAVSQNMGIGKNGDLPWPPLRNEFRYFERMTTTSSVEGKQNLVIMGKKTWFSIPEKNRPLKGRINLVLSRELKEPPQGAHFLSRSLDDALKLTEHPELANKVDMVWIVGGSSVIKEAMNHPGHLKLFVTRIMQDFESDTFFPEIDLEKYKLLPEYPGVLSDVQEEKGIKYKFEVYEKNDHMIETYNQTSPRSAATGLPISMKIFMYLLTVFLITQMIGSALFAVYLHRRLDKIEDERNLHEDFVFMKTIQRCNTGERSLSLLNCEEIKSQFEGFVKDIMLNKEETKKENSFEMQKGDQNPQIAAHVISEASSKTTSVLQWAEKGYYTMSNNLVTLENGKQLTVKRQGLYYIYAQVTFCSNREASSQAPFIASLCLKSPGRFERILLRAANTHSSAKPCGQQSIHLGGVFELQPGASVFVNVTDPSQVSHGTGFTSFGLLKL
# Experiments:
# [1] = system: T cells (CD4 and CD8 positive); experiment: TMP dose response of OT-001962, CD40L MFI in CD4 and CD8 positive T cells; format: cell-based
# Method: Dose response with TMP in T cells were conducted for OT-001962. Expression of CD40L was measured at (a) day 4 after transduction, (b) after freezing and thawing the cells or (c) after freezing and thawing the cells followed by restimulation with CD3/CD28 beads.
# HEK 293T cells = experiment: hDHFR regulated CD40L surface expression, HEK 293T cells (flow cytometry); format: cell-based, human; details: 50 μM TMP 24 hours
# Method: HEK 293T cells were transiently […] with hDHFR regulated constructs namely OT-001962, OT-001961, OT-001963 for 24 hours. Following transfection, cells were treated with 50 μM TMP for 24 hours and CD40L cell surface expression was measured using flow cytometry. […] CD40L expression in the absence of ligand was virtually undetectable.
# T cells (CD4+ and CD8+) = experiment: Regulation of CD40L in T cells by different drug responsive domains; format: cell-based
# Jurkat cells = experiment: DHFR regulated CD40L expression, transduced Jurkat cells (flow cytometry); format: cell-based
# Method: Jurkat cells were transduced with lentiviruses corresponding to OT-001662, OT-001962, OT-001961, OT-001963. 24 hours after transduction, cells were split and treated with DMSO or 50 μM TMP for another 24 hours until flow cytometry-based analysis. The results are shown in Table 37 where SR indicates stabilization ration.
molecule,measurement,setting,value
B1,CD40L expression (MFI),"[1]; CD4+, Day 4, TMP 0.1 nM",388
same,CD40L expression (MFI),"[1]; CD4+, Day 4, TMP 1 nM",396
same,CD40L expression (MFI),"[1]; CD4+, Day 4, TMP 10 nM",405
same,CD40L expression (MFI),"[1]; CD4+, Day 4, TMP 100 nM",388
same,CD40L expression (MFI),"[1]; CD4+, Day 4, TMP 1000 nM",480
same,CD40L expression (MFI),"[1]; CD4+, Day 4, TMP 10000 nM",1067
same,CD40L expression (MFI),"[1]; CD4+, Day 4, TMP 100000 nM",5917
same,CD40L expression (MFI),"[1]; CD4+, Post Thaw, TMP 0.1 nM",153
same,CD40L expression (MFI),"[1]; CD4+, Post Thaw, TMP 1 nM",156
same,CD40L expression (MFI),"[1]; CD4+, Post Thaw, TMP 10 nM",158
same,CD40L expression (MFI),"[1]; CD4+, Post Thaw, TMP 100 nM",165
same,CD40L expression (MFI),"[1]; CD4+, Post Thaw, TMP 1000 nM",166
same,CD40L expression (MFI),"[1]; CD4+, Post Thaw, TMP 10000 nM",186
same,CD40L expression (MFI),"[1]; CD4+, Post Thaw, TMP 100000 nM",395
same,CD40L expression (MFI),"[1]; CD4+, Restim, TMP 0.1 nM",631
same,CD40L expression (MFI),"[1]; CD4+, Restim, TMP 1 nM",647
same,CD40L expression (MFI),"[1]; CD4+, Restim, TMP 10 nM",645
same,CD40L expression (MFI),"[1]; CD4+, Restim, TMP 100 nM",644
same,CD40L expression (MFI),"[1]; CD4+, Restim, TMP 1000 nM",737
same,CD40L expression (MFI),"[1]; CD4+, Restim, TMP 10000 nM",1382
same,CD40L expression (MFI),"[1]; CD4+, Restim, TMP 100000 nM",6275
same,CD40L expression (MFI),"[1]; CD8+, Day 4, TMP 0.1 nM",181
same,CD40L expression (MFI),"[1]; CD8+, Day 4, TMP 1 nM",178
same,CD40L expression (MFI),"[1]; CD8+, Day 4, TMP 10 nM",182
same,CD40L expression (MFI),"[1]; CD8+, Day 4, TMP 100 nM",182
same,CD40L expression (MFI),"[1]; CD8+, Day 4, TMP 1000 nM",204
same,CD40L expression (MFI),"[1]; CD8+, Day 4, TMP 10000 nM",393
same,CD40L expression (MFI),"[1]; CD8+, Day 4, TMP 100000 nM",1941
same,CD40L expression (MFI),"[1]; CD8+, Post Thaw, TMP 0.1 nM",111
same,CD40L expression (MFI),"[1]; CD8+, Post Thaw, TMP 1 nM",116
same,CD40L expression (MFI),"[1]; CD8+, Post Thaw, TMP 10 nM",114
same,CD40L expression (MFI),"[1]; CD8+, Post Thaw, TMP 100 nM",117
same,CD40L expression (MFI),"[1]; CD8+, Post Thaw, TMP 1000 nM",118
same,CD40L expression (MFI),"[1]; CD8+, Post Thaw, TMP 10000 nM",129
same,CD40L expression (MFI),"[1]; CD8+, Post Thaw, TMP 100000 nM",236
same,CD40L expression (MFI),"[1]; CD8+, Restim, TMP 0.1 nM",254
same,CD40L expression (MFI),"[1]; CD8+, Restim, TMP 1 nM",257
same,CD40L expression (MFI),"[1]; CD8+, Restim, TMP 10 nM",258
same,CD40L expression (MFI),"[1]; CD8+, Restim, TMP 100 nM",255
same,CD40L expression (MFI),"[1]; CD8+, Restim, TMP 1000 nM",258
same,CD40L expression (MFI),"[1]; CD8+, Restim, TMP 10000 nM",382
same,CD40L expression (MFI),"[1]; CD8+, Restim, TMP 100000 nM",1185
same,% CD40L,HEK 293T cells,14.3%
same,CD40L positive,"T cells (CD4+ and CD8+); All Cells, 100 uM TMP",71.6%
same,MFI,"T cells (CD4+ and CD8+); All Cells, 100 uM TMP",1109
same,CD40L positive,"T cells (CD4+ and CD8+); All Cells, DMSO",46.5%
same,MFI,"T cells (CD4+ and CD8+); All Cells, DMSO",434
same,CD40L positive,"T cells (CD4+ and CD8+); CD4+, 100 uM TMP",83.5%
same,MFI,"T cells (CD4+ and CD8+); CD4+, 100 uM TMP",1468
same,CD40L positive,"T cells (CD4+ and CD8+); CD4+, DMSO",58.3%
same,MFI,"T cells (CD4+ and CD8+); CD4+, DMSO",548
same,CD40L positive,"T cells (CD4+ and CD8+); CD8+, 100 uM TMP",32.1%
same,MFI,"T cells (CD4+ and CD8+); CD8+, 100 uM TMP",455
same,CD40L positive,"T cells (CD4+ and CD8+); CD8+, DMSO",4.1%
same,MFI,"T cells (CD4+ and CD8+); CD8+, DMSO",157
same,"stabilization ratio, ranking among the hDHFR constructs",Jurkat cells; 50 μM TMP versus DMSO,highest stabilization ratio
same,TMP dependent regulation,Jurkat cells; 50 μM TMP versus DMSO 24 hours,strong TMP dependent regulation
same,% CD40L expression,Jurkat cells; TMP (50 μM),50%
same,SR,Jurkat cells; TMP (50 μM) versus Vehicle,16.7
same,% CD40L expression,Jurkat cells; Vehicle (DMSO),3%
